Test results from patent publication US20230212549A1, “COMPOUNDS COMPRISING A […] LIGAND AND USE THEREOF” (priority 2021, published 2023).
Bridge positions count the residues as written; N and C are the ends.

Experiments:
BZD (central) = assay: radioligand displacement (agonist radioligand), 10 µM
CB2 (h) (human), P34972 = assay: as above; conditions: remark: other sources report otherwise
[1] = target: 5-HT2A (h) (human), P28223; assay: as above; conditions: remark: other sources report otherwise
5-HT2A (h) (human), P28223, sequence (P28223 whole entry): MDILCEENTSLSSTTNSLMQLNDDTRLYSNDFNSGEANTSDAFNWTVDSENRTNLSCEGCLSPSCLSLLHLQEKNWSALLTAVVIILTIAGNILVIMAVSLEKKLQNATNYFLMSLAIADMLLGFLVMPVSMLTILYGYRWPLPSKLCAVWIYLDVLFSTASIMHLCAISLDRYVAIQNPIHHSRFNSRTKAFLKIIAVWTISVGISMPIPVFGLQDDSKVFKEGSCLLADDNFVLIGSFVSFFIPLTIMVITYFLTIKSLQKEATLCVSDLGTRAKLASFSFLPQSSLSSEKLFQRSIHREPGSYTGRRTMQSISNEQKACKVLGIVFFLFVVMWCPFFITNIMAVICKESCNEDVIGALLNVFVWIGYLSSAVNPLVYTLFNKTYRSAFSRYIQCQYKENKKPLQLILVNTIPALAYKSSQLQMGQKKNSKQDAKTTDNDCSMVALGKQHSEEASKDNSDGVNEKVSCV

[2] = target: T1, CCK1 (CCKA) (h) (human), P32238; assay: as above; conditions: remark: other sources report otherwise
T1 chain: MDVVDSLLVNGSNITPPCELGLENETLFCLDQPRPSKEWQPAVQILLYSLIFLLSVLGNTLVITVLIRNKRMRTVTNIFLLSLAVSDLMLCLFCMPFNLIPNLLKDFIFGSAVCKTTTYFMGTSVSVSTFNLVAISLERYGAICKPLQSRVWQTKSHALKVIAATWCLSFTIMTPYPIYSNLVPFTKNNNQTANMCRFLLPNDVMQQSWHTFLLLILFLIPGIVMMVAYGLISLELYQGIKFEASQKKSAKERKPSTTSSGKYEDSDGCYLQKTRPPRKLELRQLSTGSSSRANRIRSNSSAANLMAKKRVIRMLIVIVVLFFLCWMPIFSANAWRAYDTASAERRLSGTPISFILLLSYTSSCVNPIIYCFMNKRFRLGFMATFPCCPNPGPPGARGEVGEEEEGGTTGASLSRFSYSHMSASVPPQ

DPP3, Q9NY33 = target: T2, DPP3, Q9NY33; assay: cell-based or functional assay
T2 chain: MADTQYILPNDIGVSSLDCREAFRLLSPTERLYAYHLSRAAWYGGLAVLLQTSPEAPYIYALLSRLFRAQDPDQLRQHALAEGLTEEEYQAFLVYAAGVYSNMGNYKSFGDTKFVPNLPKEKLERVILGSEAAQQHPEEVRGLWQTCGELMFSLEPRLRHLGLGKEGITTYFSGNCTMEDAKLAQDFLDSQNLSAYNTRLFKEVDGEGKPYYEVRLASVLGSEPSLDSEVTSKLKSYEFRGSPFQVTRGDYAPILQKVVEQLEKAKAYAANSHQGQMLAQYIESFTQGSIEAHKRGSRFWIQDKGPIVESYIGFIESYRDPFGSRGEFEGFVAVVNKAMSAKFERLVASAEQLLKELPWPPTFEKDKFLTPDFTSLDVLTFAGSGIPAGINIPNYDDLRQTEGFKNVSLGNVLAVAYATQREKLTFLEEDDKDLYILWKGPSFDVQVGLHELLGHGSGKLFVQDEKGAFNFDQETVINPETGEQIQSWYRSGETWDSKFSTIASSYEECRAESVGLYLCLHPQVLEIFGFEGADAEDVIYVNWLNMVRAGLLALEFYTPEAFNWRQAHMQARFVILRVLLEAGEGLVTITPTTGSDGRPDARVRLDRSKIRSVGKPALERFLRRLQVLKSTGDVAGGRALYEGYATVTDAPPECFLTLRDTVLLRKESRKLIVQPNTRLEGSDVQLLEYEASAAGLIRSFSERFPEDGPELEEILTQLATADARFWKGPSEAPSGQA

CB2 (h) (human), P34972, sequence (P34972 whole entry): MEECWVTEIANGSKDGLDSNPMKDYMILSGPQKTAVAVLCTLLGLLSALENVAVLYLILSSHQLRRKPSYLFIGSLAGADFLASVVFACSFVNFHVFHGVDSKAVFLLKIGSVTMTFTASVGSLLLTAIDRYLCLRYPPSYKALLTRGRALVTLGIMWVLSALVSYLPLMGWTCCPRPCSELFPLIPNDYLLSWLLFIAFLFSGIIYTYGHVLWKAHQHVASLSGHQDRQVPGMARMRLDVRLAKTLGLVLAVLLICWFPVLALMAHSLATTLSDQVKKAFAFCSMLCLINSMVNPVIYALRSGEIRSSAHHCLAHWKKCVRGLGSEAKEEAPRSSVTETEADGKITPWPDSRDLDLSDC

Row | Binder | % Inhibition of Specific Binding (BZD (central)) | % Inhibition of Specific Binding (CB2 (h) (human), P34972) | % Inhibition of Specific Binding [1] | % Inhibition of Specific Binding [2] | Percentage inhibition (%) at 1 µM (DPP3, Q9NY33) | Percentage inhibition (%) at 10 µM (DPP3, Q9NY33)
1 | Hex-CPPTQFCD-NH2 (bridge 1-7; not fully specified (bridges); printed as Hex-[Cys(tMeBn(DOTA-PP))-Pro-Pro-Thr-Gln-Phe-Cys]-Asp-NH2) [Hex-[Cys(tMeBn(DOTA-PP))-Pro-Pro-Thr-Gln-Phe-Cys]-Asp-NH2] | -9% | 2% | -2% | 24% | – | –
2 | Hex-CPPTQFC-OH (bridge 1-7; not fully specified (bridges); printed as Hex-[Cys(tMeBn(DOTA-AET))-Pro-Pro-Thr-Gln-Phe-Cys]-OH) [Hex-[Cys(tMeBn(DOTA-AET))-Pro-Pro-Thr-Gln-Phe-Cys]-OH] | 5% | -5% | 4% | 16% | 2% | -1%
